In publication PMC6726503 (Structure (London, England : 1993), 2019):

Biological target: T1, TGF-β2DM:TβRII binary complex (human, UniProt P37173 23-166)
T1 chain 1: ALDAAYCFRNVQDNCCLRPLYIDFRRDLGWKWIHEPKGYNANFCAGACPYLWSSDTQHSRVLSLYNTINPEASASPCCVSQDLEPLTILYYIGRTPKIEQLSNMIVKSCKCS
T1 chain 2: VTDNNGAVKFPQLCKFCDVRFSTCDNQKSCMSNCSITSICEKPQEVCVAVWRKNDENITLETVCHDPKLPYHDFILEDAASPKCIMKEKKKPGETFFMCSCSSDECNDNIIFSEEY
Experiment: SEC-MALS

B1: full-length rat betaglycan ectodomain (domain or fragment, UniProt P26342 24-789, looked up)
chain: GPEPSTRCELSPINASHPVQALMESFTVLSGCASRGTTGLPREVHVLNLRSTDQGPGQRQREVTLHLNPIASVHTHHKPIVFLLNSPQPLVWHLKTERLAAGVPRLFLVSEGSVVQFPSGNFSLTAETEERNFPQENEHLLRWAQKEYGAVTSFTELKIARNIYIKVGEDQVFPPTCNIGKNFLSLNYLAEYLQPKAAEGCVLPSQPHEKEVHIIELITPSSNPYSAFQVDIIVDIRPAQEDPEVVKNLVLILKCKKSVNWVIKSFDVKGNLKVIAPNSIGFGKESERSMTMTKLVRDDIPSTQENLMKWALDNGYRPVTSYTMAPVANRFHLRLENNEEMRDEEVHTIPPELRILLDPDHPPALDNPLFPGEGSPNGGLPFPFPDIPRRGWKEGEDRIPRPKQPIVPSVQLLPDHREPEEVQGGVDIALSVKCDHEKMVVAVDKDSFQTNGYSGMELTLLDPSCKAKMNGTHFVLESPLNGCGTRHRRSTPDGVVYYNSIVVQAPSPGDSSGWPDGYEDLESGDNGFPGDGDEGETAPLSRAGVVVFNCSLRQLRNPSGFQGQLDGNATFNMELYNTDLFLVPSPGVFSVAENEHVYVEVSVTKADQDLGFAIQTCFLSPYSNPDRMSDYTIIENICPKDDSVKFYSSKRVHFPIPHAEVDKKRFSFLFKSVFNTSLLFLHCELTLCSRKKGSLKLPRCVTPDDACTSLDATMIWTMMQNKKTFTKPLAVVLQVDYKENVPSTKDSSPIPPPPPQIFHGLDTLTV
stoichiometry N: 1 BG_(O-ZP) per TGF-β2DM dimer
